In PMC4206950 (Chemical science (Royal Society of Chemistry : 2010), 2014):

Tests used:
Assay in all cases: purified protein
[1] = tested on: CC(=O)Oc1ccc([N+](=O)[O-])cc1; assay type: biochemical, Hevea brasiliensis; conditions: BES pH 7.2, 25 °C, about 7 vol% acetonitrile
CC(C)(O)C#N = assay type: biochemical, Hevea brasiliensis; conditions: pH 5 citrate buffer
N#CC(O)c1ccccc1 = assay type: biochemical, Hevea brasiliensis; conditions: pH 5.0 citrate buffer, 25 °C, racemic substrate
CC(=O)Oc1ccccc1 = conditions: […] BES pH 7.2, 5% MeCN
purified protein [2] = substrate: CC(=O)Oc1ccc([N+](=O)[O-])cc1; assay type: biochemical, Nicotiana tabacum; conditions: BES pH 7.2, 25 °C, about 7 vol% acetonitrile
purified protein [3] = substrate: CC(=O)Oc1ccc([N+](=O)[O-])cc1; assay type: biochemical, Pseudomonas fluorescens; conditions: BES pH 7.2, 25 °C, about 7 vol% acetonitrile

## HbHNL (Hevea brasiliensis; E79H)
[1]
  Km: 190 ± 40 µM
  kcat: 0.00133 ± 6.67e-05 s⁻¹
  kcat/Km: 6.83 M⁻¹ s⁻¹

## HbHNL (Hevea brasiliensis; E79H/K236G/T11G)
[1]
  Km: 160 ± 20 µM
  kcat: 0.027 ± 0.000833 s⁻¹
  kcat/Km: 168 M⁻¹ s⁻¹
CC(C)(O)C#N
  Km: 6500 ± 1000 µM
  kcat: 0.0967 ± 0.00833 s⁻¹
  kcat/Km: 14.8 M⁻¹ s⁻¹
N#CC(O)c1ccccc1
  Km: 3200 ± 900 µM
  kcat: 0.135 ± 0.0167 s⁻¹
  kcat/Km: 41.7 M⁻¹ s⁻¹
CC(=O)Oc1ccccc1
  Km: 2800 ± 400 µM
  kcat: 0.02 ± 0.00167 s⁻¹
  kcat/Km: 6.83 M⁻¹ s⁻¹

## HbHNL (Hevea brasiliensis; E79H/T11G)
[1]
  Km: 140 ± 20 µM
  kcat: 0.00967 ± 0.000333 s⁻¹
  kcat/Km: 69.3 M⁻¹ s⁻¹

## HbHNL (Hevea brasiliensis; K236G/T11G)
[1]
  Km: 150 ± 20 µM
  kcat: 0.00217 ± 6.67e-05 s⁻¹
  kcat/Km: 14.3 M⁻¹ s⁻¹

## HbHNL (Hevea brasiliensis; K236M)
[1]
  Km: 580 ± 50 µM
  kcat: 0.0123 ± 0.000333 s⁻¹
  kcat/Km: 21.2 M⁻¹ s⁻¹

## HbHNL (Hevea brasiliensis; T11G)
[1]
  Km: 200 ± 40 µM
  kcat: 0.0015 ± 8.33e-05 s⁻¹
  kcat/Km: 7.5 M⁻¹ s⁻¹

B1: SABP2 (Nicotiana tabacum) (protein)
chain: MKEGKHFVLVHGACHGGWSWYKLKPLLEAAGHKVTALDLAASGTDLRKIEELRTLYDYTLPLMELMESLSADEKVILVGHSLGGMNLGLAMEKYPQKIYAAVFLAAFMPDSVHNSSFVLEQYNERTPAENWLDTQFLPYGSPEEPLTSMFFGPKFLAHKLYQLCSPEDLALASSLVRPSSLFMEDLSKAKYFTDERFGSVKRVYIVCTEDKGIPEEFQRWQIDNIGVTEAIEIKGADHMAMLCEPQKLCASLLEIAHKYN
Purified protein [2]
  Km: 1400 ± 100 µM

B2: PFE (Pseudomonas fluorescens) (protein)
chain: STFVAKDGTQIYFKDWGSGKPVLFSHGWLLDADMWEYQMEYLSSRGYRTIAFDRRGFGRSDQPWTGNDYDTFADDIAQLIEHLDLKEVTLVGFSMGGGDVARYIARHGSARVAGLVLLGAVTPLFGQKPDYPQGVPLDVFARFKTELLKDRAQFISDFNAPFYGINKGQVVSQGVQTQTLQIALLASLKATVDCVTAFAETDFRPDMAKIDVPTLVIHGDGDQIVPFETTGKVAAELIKGAELKVYKDAPHGFAVTHAQQLNEDLLAFLKR
Purified protein [3]
  Km: 450 µM
